Data taken from the nanobody polyreactivity screen of Harvey et al. (2022).

Test: yeast display, Sf9 membrane polyspecificity reagent, FACS + sequencing; frameworks hold sequencing errors
Procedure, shortened: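 Using colony PCR, genes from sorted yeast display clones were amplified, then sequenced on MiSeq at 2 × 250 and filtered by CDR length. The clones had been stained with 10% biotinylated, detergent-solubilized Sf9 membrane reagent for 1 hour at 4 °C and sorted by FACS into low and high (top ~1%) gates on anti-HA and streptavidin fluorescence. Polyreactivity labels come from the gate of origin.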

Sequence | polyreactivity (PSR sort gate)
QVQLVESGGGLVQAGGSLRLSCAASGFTFPYYAVGWYRQAPGKERELVAAISKGGTRTYYADSVKGRFTISRDNAKNTVYLQMNSLKPEDTAVYYCAATRIYQEMDYWGQGTQVTVSS | high polyreactivity
QVQLVESGGGLVQAGGSLRLSCAASGFTFQDNAMGWYRHAPGKERELVASITGSGGSTYYADSVKGRFTISRDNAKNTVYLQMNSLKPEDTAVYYCAAETYTRSALVLYGSREMEYWGQGTQVTVSS | low polyreactivity
QVQLVESGGGLVQAGGSLRLSCAASGFTFQFYDMGWYRQAPGTEREFVATITSSGGSTYYADSVKGRFTISRDNAKNTVYLQMNSLKPEDPAVYYCANDKLFFYRVGSDYWGQGTQVTVSS | low polyreactivity
QVQLVESGGGLVQAGGSLRLSCAASGFTFQRYAMGWYRQAPGKERELVADISRSGGSTYYADSVKGRFTISRDNAKNTVYLQMNSLKPEDTAVYYCAAGYPGYDSYYKFYYWGQGTQVTVSS | high polyreactivity
QVQLVESGGGLVQAGGSLRLSCAASGFTFQSYAMGWYRQAPGKERELVATIRTRGGSTSYADSVKGRFTISRDNAKNTVYLQMNSLKPEDTAVYYCNGRLSYRSAWYYGGDRYDYWGQGTQVTVSS | high polyreactivity
QVQLVESGGGLVQAGGSLRLSCAASGFTFQTYAMGWYRQAPGKERELVATINSSGGGTYYADSVKGRFTISRDNAKNTVYLQMNSLKPEDTAVYYCAADAVWFVGQAFDISDSTTYGYWGQGTQVTVSS | low polyreactivity
QVQLVESGGGLVQAGGSLRLSCAASGFTFQVNTMGWYRQAPGKERELVAAISWSGGSTYYADSVKGRFTISRDNAKNTVYLQMNSLKPEDTAVYYCNAVPVSYRGGYWGQGTQVTVSS | low polyreactivity
QVQLVESGGGLVQAGGSLRLSCAASGFTFRANGMGWYRQAPGKERELVATITSGGTTNYADSVKGRFTISRDNAKNTVYFQMNSLKPEDTAVLYCAKRFGPAYFRLYDYWGQGTQVTVSS | low polyreactivity
QVQLVESGGGLVQAGGSLRLSCAASGFTFRANGMGWYRQAPGKERELVATITSGGTTNYADSVKGRFTISRDNAKNTVYLQMNSLKPEDTAVYYCAKRFGPAYFRLYDYWGQGTQVTVSS | low polyreactivity
QVQLVESGGGLVQAGGSLRLSCAASGFTFRAYAMGWYRPAPAKERELVAAISTGGGSTYYADSVKGRFTISRDIAKHTVYLQLNSLKPEDTAVYYCNALPQRRYYYWGQGTQVTVSS | high polyreactivity
QVQLVESGGGLVQAGGSLRLSCAASGFTFRAYAMGWYRQAPGKERELVAAISTGGGSTYYADSVKGRFTISRDNEKNTVYLQMNSLKPEDTAVYYCNALPQRRYYYWGQGTQVTVSS | high polyreactivity
QVQLVESGGGLVQAGGSLRLSCAASGFTFRAYTMGWYRQAPGKERELVAAITYSGGRTYYADSVKGRFTISRDNAKNTVYLQMNSLKPEDTAVYYCAKRGWALSEYYYWGQGTQVTVSS | high polyreactivity
QVQLVESGGGLVQAGGSLRLSCAASGFTFRENAMGWSRQAPGKERELVAAISSSGGSTYYADSVKGRFTISRDNAKNTVYLQMNSLKPEDTAVYYCAADATLSFDYWGQGTQVTVSS | high polyreactivity
QVQLVESGGGLVQAGGSLRLSCAASGFTFRFYAMGWYRQAPGKERELVAVITSRGTRTYYADSVKGRFTISRDNAKNTVYLQMNSLKPEDTAVYFCAKDFAFNGGISKYDYWGQGTQVTVSS | high polyreactivity
QVQLVESGGGLVQAGGSLRLSCAASGFTFRFYGMGWYRQAPGKERELVAAISSRGTTTYYADSVKGRFTISRDNAKNTVYLQMNSLKPEDTAVYYCNKEYTTYGYDLEYDYWGLGTQVTVSS | low polyreactivity
QVQLVESGGGLVQAGGSLRLSCAASGFTFRGNAMGWYRQAPGKERELVAAITSSDDSTYYADSVKGRFTISRDNAKNTVYLQMNSLKPEDTAVYYCAVYFFSFWGQGTQVTVSS | low polyreactivity
QVQLVESGGGLVQAGGSLRLSCAASGFTFRGYAMGWYRQAPGKERELVASISYRGDSTYYADSVKGRFTISRDNAKNTVYLQMNSLKPADTAGYYCNKLLASYYLPGFDYWGQGTQVTVSS | low polyreactivity
QVQLVESGGGLVQAGGSLRLSCAASGFTFRGYAMGWYRQAPGKERELVAVISSGGSTNYADSVKGRFTISRDNAKNTVYLQMNSLKPEDTAVYYCNAGYWFRYYGGDYYLGGLNYYWGQGTQVTVSS | low polyreactivity
QVQLVESGGGLVQAGGSLRLSCAASGFTFRGYDMGWYRQAPGKERELVATISSGGRTYYADSVKGRFTISRDNAKNTVYLQMNSLKPEDTAVYYCAAPRFGRLAFDFWGQGSQVTVSS | low polyreactivity
QVQLVESGGGLVQAGGSLRLSCAASGFTFRGYTMGWYRQAPGKERELVAAITRSGTTTYYADSVKGRFTISRDNAKNTVYLQMNSLKPEDTAVYYCATAKFYRQYGYWGQGTQVTVSS | high polyreactivity
QVQLVESGGGLVQAGGSLRLSCAASGFTFRHNTMGWYRQAPGKERELVAAISIGGRTYYADSVKGRFTISRDNAKNTVYLQMNSLKPEDTAVYYCAKLSRGQSPGYDYWGQGTQVTVSS | high polyreactivity

Sequence | polyreactivity (PSR sort gate)
QVQLVESGGGLVQAGGSLRLSCAASGFTFRHYAMGWYRQAPGKERELVARIRGGGVSTYYADSVKGRFTISRDNAKNTVYLQMNSLKPEDTAVYYCNAVYESWWGDYDYWGQGTQVTVSS | high polyreactivity
QVQLVESGGGLVQAGGSLRLSCAASGFTFRIYAMGWYRQAPGKERELVAAISWAGGSTFYADSVKGRFTISRDNAKNTVYLQMNSLKPEDTAVYYCAADTAFHYDYWGQGTQVTVSS | low polyreactivity
QVQLVESGGGLVQAGGSLRLSCAASGFTFRLNAMGWYRQAPGKEREMVAAISSSGGRTYYADSVKGRFTISRDNAKNTVYLQLNSLKPEDTAVYYCAADYTTRYLDGVVARGYYWGQGTQVTVSS | high polyreactivity
QVQLVESGGGLVQAGGSLRLSCAASGFTFRLYAMGWYRQAPGKERELVATITRRGGITTYADSVKGRFTISRDNAKNTVYLQMNSLKPEDTAVYYCNAGKYVYATSQYDYWGQGTQVTVSS | high polyreactivity
QVQLVESGGGLVQAGGSLRLSCAASGFTFRLYTMGWYRQAPGKERELVAAITYSGDSTYYADSVKGRFTISRDYAKNTVYLQMNSLKPEDTAVYYCAARKYYARYYWGQGSQVTVSS | high polyreactivity
QVQLVESGGGLVQAGGSLRLSCAASGFTFRNYAMGGYRQAPGKERELVAAISKSGGSTYYADSVKGRFTISRDNAKNTVYLQMNSLNPEDTAVYYCATDYLYVYGFEYYYWGQGTQVTVSS | high polyreactivity
QVQLVESGGGLVQAGGSLRLSCAASGFTFRQYAMGWYRQAPGKEREFFADITFSGDNTRYADSVKGRFTISRDNAKNTVYLQMNSLKPEDTGVYYCNADYLVSWLQFDYWGQGTQVTVSS | low polyreactivity
QVQLVESGGGLVQAGGSLRLSCAASGFTFRRNAMGWYIQAPGKERELVAAINVRDGSTYYADSVKGRFTISRDNAKNTVYLQMNSLKPEDTAVYYCAAEFFQGYYWYYYWGQGTQVTVSS | high polyreactivity
QVQLVESGGGLVQAGGSLRLSCAASGFTFRRNAMGWYRKAPGKERELVAAISSSGGSTNYADSVKGRFTISRDNAKNTVYLQMNSLKPEDTAVYYCNRGSRRLGSIVWYDYWGQGTQVTVSS | high polyreactivity
QVQLVESGGGLVQAGGSLRLSCAASGFTFRRNAMGWYRQAPGKERELVAAISRGGSSTYYADSVKGRFTISRDNAKNTVYLQMNSLKPEDTAVYYCGARIPNQQGYGYWGQVTQVTVSS | high polyreactivity
QVQLVESGGGLVQAGGSLRLSCAASGFTFRRYAMGWYRQAPGKEREFVAAITTRGSNTYYADSVKGRFTISRDNAKNTVYLQMNSLKPEDTAVYYCAASYYPPGHYDYWGQGTQVTVSS | high polyreactivity
QVQLVESGGGLVQAGGSLRLSCAASGFTFRRYAMGWYRQAPGKERELVAAISTSGGRTYYADSVKGRFTISRDNAKNTVYLQMNSLKPEDTAVYYCAARIPKQRDVRGSGMNYWGQGTQVTVSS | high polyreactivity
QVQLVESGGGLVQAGGSLRLSCAASGFTFRRYAMGWYRQAPGKERELVAAITRGGSTYYADSVKGRFTISRDNAKNTVYLQMNSLKPEDTAVYYCAARGGTRYSTRSYGYWGQGTQVTVSS | high polyreactivity
QVQLVESGGGLVQAGGSLRLSCAASGFTFRRYAMGWYRQAPGKERELVAGITGRGGSTYYADSVKGRFTISRDNAKNTVYLQMNSLKPEDTAVYYCNKPRAARGYLTGQLDYWGQGTQVTVSS | high polyreactivity
QVQLVESGGGLVQAGGSLRLSCAASGFTFRRYAMGWYRQAPGKERELVASIASSTGGSTYADSVKGRFTISRDNAKNTVYLQMNSLKPEDTAVYSCAADWSRFYLGHRTGSGYEYWGQGTQVTVSS | low polyreactivity
QVQLVESGGGLVQAGGSLRLSCAASGFTFRSNAMGWYRQAPGKARELVAAISYSGDSTYYADSVKGRFTISRDTAKNTVYLQMNSLKPEDTAVYYCAADGYDQWGRVGVYLIWTSYDYWGQGTQVTVSS | high polyreactivity
QVQLVESGGGLVQAGGSLRLSCAASGFTFRSNAMGWYRQAPGKVRELVAAISYSGDSTYYADSVKGRFTISRDNAMNTVYLQMNSLKPEDTAVYYCNAVGSGYRSWYDYWGQGTQVTVSS | high polyreactivity
QVQLVESGGGLVQAGGSLRLSCAASGFTFRTYAMGWYRQAPGKERELVAAISKSGGSTYYADSVKGRFTISRDNAKNTVYLQMNSLTPEDTAVYYCNAGEASWFSLHYYWGQGTQVTVSS | high polyreactivity
QVQLVESGGGLVQAGGSLRLSCAASGFTFRVNAMGWYRQAPGKERELVAAISSGGGITYYADSVKGRYTISRDNAKNTVYLQMNSLKPEDTAVYYCAARENRYLERDYWGQGTQVNVSS | low polyreactivity
QVQLVESGGGLVQAGGSLRLSCAASGFTFRVNAMGWYRQAPGKERELVAAISSGGSTNYADSVKGRFTISRDNAKNTVYLQMNSLKPEDTAVYYCAKRFKYIYYWGQGTQVTVSS | high polyreactivity
